Experimental data: the nanobody polyreactivity screen of Harvey et al. (2022)

Assay: yeast display, Sf9 membrane polyspecificity reagent, FACS + sequencing; frameworks hold sequencing errors
Method in brief: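 Sorting gates, low and high (top ~1%), were placed on anti-HA fluorescence to track expression and on streptavidin fluorescence to track reagent binding. A clone's polyreactivity label is taken from the gate it came out of. The reagent was 10% biotinylated, detergent-solubilized Sf9 membrane, applied for 1 hour at 4 °C to galactose-induced yeast display cells.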

Sequence	polyreactivity (PSR sort gate)
QVQLVESGGRLVQAGGSLRLSCAASGSTFDENAMGWYRQAPGKERELVAAISRRGVSTYYADSVKGRFTISRDNEKNTVYLQMNSVKPEDTAVYYCARRYGGVGMYYWGQGTQVTVSS	high polyreactivity
QVQLVESGGGLVQAGGSLRLSCAASGRTFHRYVMGWYRQAPGKERELVAAITRSGGITYYADSVKGRFTISRDNAKNTVYLQMNSLKPEDTAVYYCAKDDQTASGFDYWGQGTQVTVSS	low polyreactivity
QVQLEESGGGLVQAGGSLRLSCAASGSIFRPNAMGWYRQAPGKERELVASINSGSGSTYYADSVKGRFTISRDNAKNTVYLQMNSLKPEDTAVYYCNAAGAYPYYSEDYYWGQGTQVTVSS	low polyreactivity
QVQLVESVGGLVQAGGSLRLSCAASGITFSLYAAMGWYRQAPGKERELVAAISWRGGNTYYADSVKGRFTISRDNAKNTVYLQMNSLKPEDTAVYYCAARRTNLPVNFYYWGQGTQVTVSS	high polyreactivity
QVQLLESWGGLVQAGGSLRLSCAASGRTSTRNAMGWYRQAPGNERELVAAISWSGGRTHYADSVKGRFTISRDNAKNTVYLQMNSLKPEDTAVYYCAAAYTGGQKYYSWGQGTEVTVSS	high polyreactivity
LVQLQERVGVLVQAGGRLRLNCAASGTISPGGYMGWYRQAPGKELELVASINVGGSTNYADSVKGRFTISRDNAKNTVYLQMNRLKPEDNAVYYCAVWGRNRLQLSYWGQGTQVTVSS	low polyreactivity
QVQLVESGGGLVQAGGSLRLSCAASGSIFSYNAMGWYRQAHGKERELVAAIRASGGSTYYADSVKGRFTISRDNAKNTVYLQMNSLKPEDTAVYYCAARGYGWGQGTQVTVSS	high polyreactivity
QVQLVESGGGLVQAGGSLRLSCAASGSTFLLYDKGWYRQAPGKERELVAAITWSGGSTYYADSVKGRFTISRDNAKNTVYVQMNSLIPEDTAVYYCAADSLGDRYYYWGQGTQVTVSS	low polyreactivity
QVQLVESGGGLVQAGGSLRLSCAASGSIFDFNAMGWYRQAPGKERELVATIRYSGGSTYYADSVKGRFTISRDNAKNTVYLQMNSLKPEDTAVYYCIFRSPSYEYDYWGQGTQVTVSS	low polyreactivity
QVQLVESGGGLVQAGGSLRLSCAASGIIFRIYAMGWYRQAPGKEREFVAAISGSGDSTYYADSVKGRFTISRDNAKNTVYLQMNSLKPEDTAVYYCAARAIFRQGDRIYDSWGQGTQVTVSS	high polyreactivity
QVQLVESGGGLVQAGGSLRLSCAASGFTFGQYAMGWYRQAPGKERELVAAISWSGGSTYYADSVKGRFTISRDNAKNTVYLQMNSLKPEDTAVYYCGEDLGDYWGQGTQVTVSS	high polyreactivity
QVQLVESGGGLVQAGGSLRLSCAASGRTFYQYAMGWYRQAPGKERELVAAISWSDGSTSYADSVKGRFTISRDNAKNTVYLQMNSLKQEDTAVYYCAKDWTGTKAIEYDYWGQGTQVTVSS	low polyreactivity
QVQRVESGGGLVQAGGRLRLSSAASGSIFGRYGMGWYRQAPGKDRELVAAITSGTRRNYADSVKGRFTISRDNAKNTVYLQMNSLKPEDTAVYYCNAVRLRGNYEYGYWGLGTQVTVSS	low polyreactivity
QVQLVESGGGLVQAGGSLRLSCAASGSIFEPYAMGLYRQAPGKERELVAAIRWSGGSTYYADSVKGRFTISRDNAKNTVYLQMNSLKPEDTAVYYCAKYFPAGYYYWGQGTQVTVSS	low polyreactivity
QFQLVDSGGGLVQAGASLRLSCAASGFIFEWYTIGWSREAPGTAREFVARISSDGSTTYADSVKGRFTSSRDNAKNTVYLQMNSLKPEDTAVYYCADDVSYPGQKYIFDDWGQCTQVTVSS	low polyreactivity
QVQLVESGGGLVQAGGSLRLSCAASGSTKYYVMGWYRQAPGKERELVAAISRGSSTYYADSVKGRFTISRDNAKNTVYLQMNSLKPEDTAVYYCAARGPWQAPYDYWGQGTQVTVSS	high polyreactivity
QVQLVESGGGLVQAGGSLRLSCAASGSTFRGNAMGWYRQAPGKERELVAGISGSGGRTYYADSVKGRFTISRDNAKNTVYLQMNSLKPEDTAVYYCAARSTVYEYFYYRGWWEYYYWGQGTQVTVSS	low polyreactivity
QVQLVESGGGLVQAGGSLRLSCAASGFTFYYYAMGWYRQAPGKERELVAAITWSGDSTNYADSVKGRFTISRDNAKNTVYLQMNSLKPEDTAVYYCATESYDSYGLYDYWGQGTQVTVSS	low polyreactivity
QVQLVESGGGLVQAGGSLRLSCAASGYTFAGNAMGWYRQAPGKERELVAAISRSGGRTYYADSVKGRFTISRDNAKNTVYLQMNSLKPEDTAVYYCAAYGYKYDYWGQGTQVTVSS	high polyreactivity
QVQLLESGGGLVQAGGSLRLSCAASGRIFSENAMGWYRQAPGKERELVAAITGNGGDTYYADSVKGRFTISRDNAMNTVYLQMNSLKPEDTAVYYSAAETGGLGGEYWGQGTHVTVSS	low polyreactivity
QVQLVESGGGLVQAGGSLRLSCAASGITFYVNTKGWYRQAPGKEREVVAAIDWTDGGTYYADSVKGRFTISRDNAKNTVYLQMNSLKPEDTAVYYCALDYYWDIIGLYGYLAYDLDYWGQGTQVTVSS	low polyreactivity
QVQLVESGGGLVQAGGSLRLSCAASGSIFGFNAMGWYRQAPGTERELVAAITWSGVSTYYADSVKGRFTISRDNAKNTVYLQMNSLKPEDTAVYYCAADVIIDWWYEMDYWGQGTQVTVSS	high polyreactivity

Sequence	polyreactivity (PSR sort gate)
QVQLVESGGGLVQAGGSLRLSCAASGRIFAFYARGWYRQAPGKERELVAAITSGGSTKYADSVKGRFTISRDNAKNTVYLQMNSLKPEDTAVYYCAAQYRYQRYSYAMEYWGQGTQVTVSS	high polyreactivity
QVQLVESGGGLVQAGGSLRLSCAASGRTFDVYAMGWYRQAPGKERELVATISYRSARTYYADSVKGRFTISRDNAKNTVYLQMNSLKPEDTAVYYCNAQSWRLYGHCYYWGQGTQVTVSS	high polyreactivity
QVQLVESGGGLVQAGGSLRLSCAASGRTFRYYAMGLYRQAPGKERELVAAIRSGGTTYYADSVKGRFTISRDNAKNTVYLQMNSLKPEDTAVYYCAADGGKGGIRFGYWGQGTQVTVSS	high polyreactivity
QVQLVESGGGLVQAAGSLRLSCAASGFTFYSNVMGWYRQAPGKERELVAAITGRGSRTYYEDSVNGRFTISRDNAKNTVYLQMNSLKTEDTPVYYCAARYTNYGGYYWGQGTQVTVSS	high polyreactivity
QVQLVESGGGLVQAGGSLRLSCAASGSTFRYNAMGWYRQAPGKERELVAAINRGGGTDYADSVKGRFTISRDNAKNTVYLQMNSLKPEDTAVYYCAAAYLRYVSTQYHYDDWGQGTQVTVSS	low polyreactivity
QVQLVESGGGLVQAGGSLRLSCAASGRTFSRYAMGWYRQAPGKERELVAAITRSGGSTYYADSVKGRFTISRDNAKNTVYLQMNSLKPEDTAVYYCATERNLRNYDYWGQGTQVTVSS	high polyreactivity
QVQLQERGGGLVQAGGSLRLSCAASRIIYADGFMGLYRQAPGKEREFVATITGGGTSNYADSVKGLFTISRDNAKNTVYLQMNSQKPEDTAVYYCAVYFAWTIGFTYWGQGTQVTVSS	high polyreactivity
QVQLVESGGGLVQAGGSLRLSCAASGRIFSNNAMGWYRQAPGKERELVAAITNSGGSTYYADSVKGRFTISRDNAKNTVYLQMNSLKPEDTAVYYCAADHLSVQYDVYWTYYYWGQGTQVTVSS	low polyreactivity
QVQLVESGGGLVQAGGSIRLSCAASGSTFPGNAMGWYRQAPGKERELVASISGGGDSTYYADSVKGRFTISRDNAKNTVYLQMNSLKPEDTAVYYCAADTQGSVRPGYDYWGQGTQVTVSS	low polyreactivity
QVQLVESGGGLVQAGGSLRLTCAASGGIFTDYTMGWYRQAPGKERELVSAITWTGGSTYYADSVKGRFTISRDNAKNTVYLQMNSLKPEDTAVYYCYVVKYVYIYSYWEYYFWGQGTQVTVSS	low polyreactivity
QVQLVESGGGLVQAGGSLRLSCAASGRTFSYNAIGWYRLAPGKERELVARISSGGSTNYADSVKGRFTISRDNAKNTVYLQMNSLKPEDTAVYYCNAVYRTYEYYWGQGTQVTVSS	high polyreactivity
QVQLVDSGGGLVQAGGSLRLSCSASGITNGRNTMGLYRQAPGKERELVAAIDSGGNTYADSVKGRFTISRDNAKNTVYLQMNSLKPEDTAVYYCAVDGGEFSSYGYWGQGTQVTVSS	low polyreactivity
QVQLVESGGGLVQAGGSLRLSCADSGSTFWYNAMGWYRQAPGKERELVAAITWSASRTYYADSVKGRFTISRDNAKNTVYLQMNSLKPEDTAVYYCAKASPRYKYFTGDYWGQGTQVTVSS	high polyreactivity
QVQLVESGGGLVQAGGSLRLSCAASGSTFSSNGMGWYRPAPGKERELVAAITSGGSTNYADSVKGRFTISRDNAKNTVYLQMNSLKPEDTAVYYCNAERTAYGGGDYWGQGTQVTVSS	low polyreactivity
QVQLVESGGGLVQAGGSLRLSCAASGRSFKYNAMGWYRQAPGKERELVAAISISGGSTYYADSVKGRFTISRDNAKNTVYLQMNSLKPEDTAVYYCNDDTYYLSDYVTFDYWGQGTQVTVSS	low polyreactivity
QVQLVESGGGLVHAGGSLRLSCAASGYTFTYYVMGWYRQAPGKEREFVAGIRNGGGRMYYADSVKGRFTISRDNAKNTVYFQMNSLKPEDTAVYYCNAGYGTYYSGVYWRGEMDYWGQGTQVTVSS	high polyreactivity
QVQLVESGGVLVQAGGSLRLSCAASGSTFGPNAMGWYRQAPGKERELVAAIRSNGGRTYYADSVKGRFTISRDNAKNTVYLQMNSLKPEDTAVYYCAAPHYPYDTPYGYWGQGTQVTVSS	low polyreactivity
QVQLVESGGGLVQAGGSLRLSSAASGRIFYGYAMGWYRQAPGKERELVAGISKRGGSTRYADSVKGRFTISRDNAKNTVYLHMNSLKPEDTAVYYCNRLPYLHYAGRLTNYDYWGQGTQVTVSS	high polyreactivity
QDQLVESGGGLVQAGGSLRLSCAASGRTFVSYVMGGYRQAPGKERELVAAIRRRGGRTYYSDSVKGRFTISRDNAKNTVYLQMNSLKPEDTAVYYCAAAQPGTNAYRVGSWGQGTQVSVSS	high polyreactivity
QVQLVESGGGLVQAGGSLRLSCAASGRTFRANAMGWYRQAPGKERELVAAISQRGGNTYYADSVKGRFTISRDNAKNTVYLQMNSLKPEDTAVYYCAADITTYRRGRYEYEYWGQGTQVTVSS	high polyreactivity
QVQLVESGGGLVQAGGSLRLSCAASGRTFAQNAMGWYRQAPGKERELVAAITASGSITYYADSVKGRFTISRDNAKNTVYLQMNSLKPEDTAVSYCAARGRYHFFSKYDYWGQGTQVTVSS	high polyreactivity
